From the nanobody polyreactivity screen of Harvey et al. (2022)

assay: yeast display, Sf9 membrane polyspecificity reagent, FACS + sequencing; frameworks hold sequencing errors
Outline: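 After 36–48 hours of galactose induction, yeast (Saccharomyces cerevisiae BJ5465) displaying a synthetic nanobody library were stained at 4 °C for 1 hour with 10% biotinylated, detergent-solubilized Sf9 membrane reagent. Streptavidin microbeads enriched the stained cells before FACS sorting into low and high (top ~1%) gates on anti-HA and streptavidin fluorescence. Each clone's polyreactivity label reflects its gate of origin.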

Sequence | polyreactivity (PSR sort gate)
QVQLVESGGGLVQAGGSLRLSCASSGRIFRVNGMGWYRQAPGKESELVATITGSGGSTYYADSVKGRFTISRDNAKNTVYLQMNSLKPEDTAVYYCAAVSYWPTDRYYSWGQGTQVTVSS | low polyreactivity
QVQLVESGGGLVQAGGSLRLSCASSGFIFPLYAMGWYRQAPGKERELVAAINWRGGTTYYADSVKGRFTISRDNAKNTVYLQINSLKPDDTAVYYCAATHWAYSRVPYDYWGQGTQVSVSS | high polyreactivity
QVQLVESVGGLVQAGGSLRLSCAASGRTLFTNGMGWYRQAPGKESELVAAISTSGGSTHYADSVKGRFTISRDNAKNTVYLQMNSLKPEDTAVYYCAVDVLTVGQSYDHWGQGTQVTVSS | high polyreactivity
QVQLVESGGGLVQAGGSLRLSCAASGFIFGYNVMGWYRQAPGKERELVAAISSRGSSTYYADSVKGRFTISRDDVKNTVYLQMNSLKPEDTAVYYCAAYSSYNSWVSRRYGHDYWGQGTQVTVSS | high polyreactivity
QVQLEESGGGLVQAGGSLRLICAASGLTFPPNSMRWYRQATGKERELVADSGGSTNYADSVKGRFTISRDNAKNNVYLQMNSLKPEDTAVYYCAAPPYSDGQWDDYWGQGTQVTVSS | low polyreactivity
QVQLVESGGGLVQAGGSLRLICAASGLIFAVYAMGWYRQAPGKERELVAGISASAASTYYADSVKGRFTISRDNAKNTVFLQMNSLNPEDTAVYYCAADFYWFWTYGTLWYGYEYWGLGTQVTVSS | high polyreactivity
QVQLVESGGGLVQAGGSLRLSCAASGLTFWRYAMGWYRQAPGKERELVAGISSSTGSTYYADSVKGRFTISRDNAKNTVYLQMNSLKPEDTAVYYCNAYVRRIVRSYYWGQGTQVTVSS | high polyreactivity
QVQLVESGGGLVQAGGSLRVSCAASGRTLRSYAMGWYRQAPGKERELVAAISRSGGSTYYADSVKGRFTISRDNAKNPVYLQMNSLKPEDTSVYYCATRYLRSLDYWGQGTQVTVSS | high polyreactivity
QVQLVESGGGLVQAGGSLRLSCAASGTTFCSYAMGRYRQAPGKEREFVAAISSSDDSTYYADSVKGRFTISRDYAKNTVYLQMNSLKPEDTAVYYCAAAQRVNHVWYDYWGQGTQVTVSS | low polyreactivity
QVQLVESGVGLDKAGGSLRLISAASGRILWYNAMGLYRQAPGKEREFVARISISTASTYYADSVKGRFTISRDNAKNTVFLQMNSLKPEDTAVYYCAGKPWRTVPYYYWGQGTQVSVSS | high polyreactivity
QVQLVESGGGLVQAGGSLRLSCAASGRIIAWNDMGWYRQAPGKERELVAAIRWSSGTTYYADSVKGRFTISRDNAKNTVYLQINSLKPEDTAVYYCAAGGHARTWYAYYYWGQGTQVTVSS | low polyreactivity
QVHLVESGGGLVQAGGSHRLRCAASGRIFSGYAKGRYRQAPGKERELVAAITQSGGSTSYADSVKGRFTISRDNAKNTVYLQMIRLKPEDTAVYYCNVDDSTWIGAYRRYDYWGQGTQVTVSS | low polyreactivity
QVPLVESGGGLVQAGGSLRLSCAASGSIFYPYAMGWYRQAPGKERELVASITWSGGSTYYADSVKGRITISRDNATNSVYRQMNSLKPEDTAVYYCAADEKLYITGYDYWGQGTQVTVSS | low polyreactivity
QVQLVESGGGLVQAGGSLRLSCAASGRIFTKYAMGWYRQAPGKERELVAAISRGGSNTYYADSVKGRFTISRDIAKNTVYLQMNSLKPEDTAVYYCNKPYSYVGWPGTGPDPKTVYYWGQGTQVTVSS | high polyreactivity
QVQHVESGGGLVQAGGSLRLSCAAYGSIFGWYGMGWYRQAPGKERELVAAITRGGSTYYADSVKGRFTISRDNAKNTVYLQMISLKPEDTAVYYCAKRSGQQYGGYGYWGQGTHVTVSS | low polyreactivity
QVQLVESGGGLVQAGGSLRLSCAASGFTFSYYAMGWSRPEPGKERELVAAISSSASRTYYAESVKGRFTISRDNAKNTVYFQMNSLKPEDTAVYYCAARYSESRTRHLDYWGQGTQVTVSS | high polyreactivity
QVQLVESGGGLVQAGGSLRLSCAASGIIFGDNAMGWYRQAPGKERELVAAITIGGTSTYYADSVKGRFTISRDNAKNTVYLQMNSLKPEDTAVYYCAKTILYDCDYWGQGTQVTVSS | low polyreactivity
QVQLVESGGGLVQAGGSLRLSCAASGRIFRYYAMGWYRQAPGKEREFVAAINSSGVNTYYADSVKGRFTISRDNAKNTVYLQMNSLKPEDTAVYYCAADWYQWGGRYYAPRYYYWGQGTQVTVSS | high polyreactivity
QVQHVESGGGLVQAGGSLRLSCAASGFILDTYGMGWYRQAPGKERELVAAISQSDVSTYYADSVKGRFTISRDNAKNTVDLQMNSLKPEDTAVYDCAADRGGLRWFWQVLYDYWGQGTQVTVSS | low polyreactivity
QVQLVESGGGLVQAGGSLRLSCAASGSILWLYAMGWYRQAPGKERELVAAISGSGRTNYADSVKGRFTISRDNAKNTVYLQMNSQKPEDTAVYYCARVHGTSESKYYYWGQGTQVTVSL | low polyreactivity
QVQLVESGGGLVQAGGSLRLSCAASGGTFLAYAMGWSRQAPGKEREFVAGISNDGDTNYADSVKGRFTISRDNAKNTVYLQMNSLKPEDTAVYYCAALYRGYAVAASYYHWGQGTQVTVSS | high polyreactivity
QVQLVESGGGLVQAGGSLRLSCAASGSIVSGYAMGCYRQARGKERELVDAITRSGGRTYYADSVKGRFTISRDNAKNTVYLQMNSLKPEDTAVYYCAARGGPGDDYWGQGTQETVSS | high polyreactivity

Sequence | polyreactivity (PSR sort gate)
QVQLVESGGGLVQAGGSLRLSCAASGSNFDSYAMGWYRQAPGKERVLVAAITRSSVSTYYADSVKGRFTISRDNAKYTVYLQMNSLKPEDTAVYYCAAEDEWSLLYLWFGEYDYWGQGTQVTVSS | low polyreactivity
QVQLLESGGGLVQAGGSLRLSCAASGGTFRVYAMGWYRQAPVKEWELVAAISSGGSTNYADSVKGRFTISRDNAKNTVYLQMNSLIPEDTAVSYCNAKYRYRFARSPIYFYWGQGTQVTVSS | low polyreactivity
QVQLVESGGGLVQAGGSLRLSCAASGSTFFFNAMGWYRQAPGKERELVAAITGSGGSTYYADSVKGRFTISRDNAKNTVYLQMNSLKPEDTAVYYCNASSPYDYDWGQGTQVTVSS | low polyreactivity
QVQLVESGGGLVQAGGSLRLSCAASGSTFGSYAMGWYRQAPGKERELVAAISRAGSTYADSVKGRFTISRDNAKNTVYLQMNSLKPEDTAVYYCAKRDNALYYGYDYWGQGTQVTVSS | low polyreactivity
QVQLVESGGGLVQAGGSLRLSCAASGSTFYTYDMGWYRQAPGKERELVAAISRRDGITYYADSVKGRFTISRDYATNTVYLQMNSLNPEDSAVYYCAAEDAYRYYDFDYWGQGTQVTVSS | low polyreactivity
QVQLVESGGGLVQAGGSLRLSCAASGRILYVNAMGWSRQAPGKERELVAAISWRGGRTYYADSVKGRFTISRDTAKNTVYLQMNSLKPEDTAVYYCAARARGGYQRDYWGQGTQVTVSS | high polyreactivity
QVQLVESGGGLVQAGGSLGLSCAASGRTLYRYAMGWYRQARGKERELVAAIRSGGRTNYADSVKGRFTISRDNAKNTVYLQMNSLKPEDTAVYYCAAGTLRYPSTYVDWGQGTQVTVSS | high polyreactivity
QVQLVESGGGLVQAGGSLRLSCAASGRTFYSYAMGWYRQAPGKERELVAAISSSSGRTYYADSVKGRFTISRDNAKNTVYLQMNSLKPEDTGVYYCNRAGGYRTTFYSWGQGTQVTVSS | high polyreactivity
QFQLVESGGGLVQAGGSLRLSCAATGRIFYKYAMGWYRQAPRKETELVAAISSSGGRTYYADSVKGRFTISRDNAKNTVYLQMNSLKPEDSAVYYCGARIHYPSLPYDYWGQGTQVTVSS | low polyreactivity
QVQLVESGGGLVQGGGSLRLSCAASGFTFYYNAMGSYRQAPGKERELVADITSGGDTYYADSVKGRFTISRDNAKNTVYLQRNSLKPEDTAVYYCAAELWGLFDYWGQGTEVTVSS | low polyreactivity
QVQLVESRGGLVQAGGSLRLSCAASGLTFKWYAMGWYRQAHGKERELVAAISRDGSTYYADSVKGRFTISRDNAKNTVYLQMNSLKPEDTAVYYCAAEPRSRRVLYDYWGQGTQVTVSS | high polyreactivity
QVQVVESGGGLVQAGGSLRLSCAASGSTFKKYAMGWYRQAPGKERELVAAISWSGGSTYYADSVKGRFTISRDNAKNTVYLQMNSLKPEDTAVYYCAAYPYTYYLDRYEYWGQGTQVTVSS | high polyreactivity
QVQLVESGGGLFQAGGSLRISSAPSGRTYYRNAMGWYRQAPGIERELVAAISWSGGRTYYADSVKGRFTISRDNAKNTVYLQMNSLKPEDSAVYYCAALFIYRSYAALSRYDYWGQGTQVTVSS | high polyreactivity
QFQLVESGGGLVQAGGSLRLSCAASGRIFYLYAMGWYRQAPGKERELVAGITSGGRTNYADSVKGRFTISRDNGKNTVFLQMNSLKPEDSAVYYCAAGSLRYKYDYWGQGTQVTVSS | high polyreactivity
QVQLVESGGGLVQAGGSLRLSCAASGSTFDPYGMGWYRQAPGKERELVAAITSSGRTNYADSVKGRFTISRDNAKNTVYLQMNSLKPEDTAVYYCATRKERYFYRGYEYWGQGTQVTVSS | low polyreactivity
QVQLVESGGGLVQAGGSLRLSCAASGSIFAAYTMGWYRQAPGKERELVAAISVSTVSTYYADSVKGRFTISRDNAKNTVYLQMYSLKPEDTAVDYCNADATDSYPEKDEHDSWGQGTQVTVSS | low polyreactivity
QDQLVESGGGLVQAGGSLRLSCAGCAYIFGRYAMGWYRQAPGKEMELVAAITQRGGRTYYPDSVKGRFTISRDNAKNTVYLQMNSLKPEDTAVYYCAALLYFFLYDYWGQGTQVTVSS | low polyreactivity
QVQLVESGGGLVQAGGSLRLSCAASGRIFDGYAMGWYRQAPGKESELVATIDVSGGRTTYADSVKGRFTISRDNAKNTVYLQMNSLKPEDTAVYYCNVDYYWSSGGTDYDYWGQGTQVTVSS | low polyreactivity
QVQLVESGGGLVQAGGSLRLSCAASGGIFYGYAMGWYRQAPGKERELVASITSDGSTYADSVKGRFTISRDNAKNTVYLQMNSLKPEDTAVYYCNKEILVIVTYDYWGQGTQVTVSS | low polyreactivity
QVQLVESGGGLVQAGGSLRLRCAASGRIFDYYAMGWYRPAPGNERELVAALSSSVGNTYYADSVKGRFTISRDNAKNTVYLQMNSLKPEDTAVYYCADNYYVRSSYEVEYDYWGQGTQVTVSS | low polyreactivity
QLQLVESAGGLVQAGGSLRLSCAASASTFGSYAMGWYRQATGKETELDASNTSAGSTNYADSVKGRFTISRDNAKNTVYLQMNSLKPVDTEVYYCNDVRYYSYQYVPEVTHRYGFWGQGTQVTVSS | high polyreactivity
